B1: CtGH43 (Acetivibrio thermocellus ATCC 27405) (protein)
chain: AADYPIFSQRFTADPAAVVYNGRLYIYCSHDSDATPGQSTYNIPDITCISTDDLKNWTDHGEVFNAKRDSRWASVSWAPSIVYRNNKFYLYYGNGGNGIGVAVSDSPTGPFKDPLPGPLVSWNTPGVQPAQNMWLFDPGVFVDDDGQAYMYFGGNGQNNIRVIKLGNDMISTVGSAMTMSAPRFFEAAYMHKYNGKYYFSYASDFSQGASKIEYMMSDKPTTGFQYKGVILPQPPDNYSNNNHHAIVEYKGNWYVVYHNRTVAKQRGLDPVYQRNVCIDQMFYNADGTIKQVVPTVDGLKQ
notes: truncated: N-terminal GH43 catalytic module only (903 bp), both CBM6 removed; His6-tagged, pET-28a(+), E. coli BL21(DE3) pLysS; 34 kDa
B2: Ct43Araf (Acetivibrio thermocellus ATCC 27405) (protein)
chain: AADYPIFSQRFTADPAAVVYNGRLYIYCSHDSDATPGQSTYNIPDITCISTDDLKNWTDHGEVFNAKRDSRWASVSWAPSIVYRNNKFYLYYGNGGNGIGVAVSDSPTGPFKDPLPGPLVSWNTPGVQPAQNMWLFDPGVFVDDDGQAYMYFGGNGQNNIRVIKLGNDMISTVGSAMTMSAPRFFEAAYMHKYNGKYYFSYASDFSQGASKIEYMMSDKPTTGFQYKGVILPQPPDNYSNNNHHAIVEYKGNWYVVYHNRTVAKQRGLDPVYQRNVCIDQMFYNADGTIKQVVPTVDGLKQLKYVDPYTKNLAVTMHKESGIETEECSEGGRNVAFIENGDWIQVKGVDFGNVGPTSFEARVASATNGGNIEIRLDSPTGTLIGTCKVEGTGDWQKWVTKTCSVSKVTGVHDLFFRFTGGSGYLFNFSWWKFNSDATPTPTPPPQPSTVPVTERSAFSKIEVEDFNDIKSSTIQKIGTPNGGSGIGYIENGDWLAYKNIDFGNGATTFKALVASTLSPNIELRLDSPTGTLIGTLKVAATGGFNAYEEQSCNISKVTGKHDLYLVFSGAVNIDWFTFGGSSGII
notes: CtGH43-CtCBM6A-CtCBM6B; His6-tagged, pET-21a(+), E. coli BL21(DE3); 63 kDa; gene range printed 1545911 to 1547651; modules 903, 405 and 402 bp; forward primer starts at AADYP

Legend:
purified protein [1] = substrate: O=[N+]([O-])c1ccc(O[C@@H]2OC[C@H](O)[C@H](O)[C@H]2O)cc1; assay: purified protein; type: biochemical, Acetivibrio thermocellus; conditions: 50°C, 20 mM sodium phosphate pH 5.7 (table note; methods print 50 mM sodium phosphate pH 6.0), substrate 20–500 µM
purified protein [2] = substrate: O=[N+]([O-])c1ccc(O[C@@H]2O[C@@H](CO)[C@H](O)[C@H]2O)cc1; assay: purified protein; type: biochemical, Acetivibrio thermocellus; conditions: 50°C, 20 mM sodium phosphate pH 5.7 (table note; methods print 50 mM sodium phosphate pH 6.0), substrate 20–500 µM

Protein | Km (purified protein [1]) | kcat (purified protein [1]) | Km (purified protein [2]) | kcat (purified protein [2])
B1 | 0.097 ± 0.004 mg/mL | 3.533 ± 0.0333 s⁻¹ | 0.04 ± 0.004 mg/mL | 4.783 ± 0.0167 s⁻¹
B2 | 0.093 ± 0.003 mg/mL | 3.5 ± 0.0783 s⁻¹ | 0.05 ± 0.002 mg/mL | 4.717 ± 0.0333 s⁻¹

From paper PMC3767815, “A Novel α-L-Arabinofuranosidase of Family 43 Glycoside Hydrolase (Ct43Araf) from Clostridium thermocellum” (PLoS ONE, 2013)
